Experimental data reported in PMC2851732 (2010).
Like-named read-outs stand apart in the source and are kept apart here. Ends that are not written are not given here. * marks the point of attachment. FITC = O=C1OC2(c3ccc(O)cc3Oc3cc(O)ccc32)c2ccc(NC(=S)*)cc21; βAla = NCCC(=O)O

What was measured:
[1] = molecular target: T1, DV2 sE(1–395), postfusion trimer (dengue virus type 2, UniProt P12823); assay: FP
[2] = molecular target: T1, DV2 sE(1–395), postfusion trimer; assay: FP; remark: listed apart in the source

| Binder | Kd [1] [nM] | Kd [2] [nM] |
| --- | --- | --- |
| {FITC-βAla}-AWDFGSLGGVFTSIGKALHQVF [FITC-conjugated stem peptide DV2^419–440] | 250 | – |
| {FITC-βAla}-AWDFGSLGGVFTSIGKALHQVFGAIYGAA [FITC-conjugated stem peptide DV2^419–447] | 125 | – |
| AILGDTAWDFGSLGGVFTSIGKALHQVFGAIYGAA [stem peptide DV2^413–447] | – | 275 |
